# Measurements reported in patent US20210347873A1 (SHANGHAI PHARMAEXPLORER, published 2021).
# T1: cynomolgus BLyS (full length, arginine 132 mutated to histidine) on CHO-K1 cells (cynomolgus, UniProt Q9Y275 1-285 (human entry))
# T1 construct: also called cyno BLyS; CHO-K1 cynoBLyS
# T1 chain: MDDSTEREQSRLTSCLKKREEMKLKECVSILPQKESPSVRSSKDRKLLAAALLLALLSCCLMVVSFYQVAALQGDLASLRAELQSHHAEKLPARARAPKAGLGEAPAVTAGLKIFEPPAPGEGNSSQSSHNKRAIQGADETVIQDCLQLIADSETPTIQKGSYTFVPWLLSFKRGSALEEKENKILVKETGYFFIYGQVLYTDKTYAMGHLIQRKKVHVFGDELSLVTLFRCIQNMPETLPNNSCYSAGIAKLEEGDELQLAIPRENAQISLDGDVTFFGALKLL
# B1: 8E7D9C7F5 (antibody, V domains shown)
# VH: QVQLQQSGVELARPGASVKLSCKASGYTFTSYGISWVKQRTGQALEWIGEIYPRSGNTYYNEKFKGKATLTADKSSSTAYMELRSLTSEDSAVYFCARSGPITTLVATDYGMDYWGQGTSVTVSS
# VL: DIVLTQSPASLAVSLGQRATISCRASKSVSTSSYSYMHWYQQKPGQPPKLLIKFASNLESGVPARFSGSGSGTDFTLNIHPVEEEDAATYYCQHSREFPYTFGGGTKLEIK
# notes: Mouse hybridoma antibody purified on Protein G
# B2: c97A3C2H4 (antibody, human IgG1, V domains shown)
# VH: EVKLVESGGGLVQPGGSLKLSCAASGFTFSTYTMSWVRQTPEKRLEWVAYISYGGGSTSYPDTVKGRFTISRDNAKNTLYLQMSSLKSEDTAIYYCTRHVTVVENSMDYWGQGTSVTVSS
# VL: DILLTQSPDILSVSPGERVSFSCRASQSIGTSIHWYQQRTNGSPRLLIKYVSESFSGTPSRFSGSGSGTAFTLTINSVESEDIADYYCQQTHSWPWTFGGGTKLEIK
# notes: also called BLyS chimeric antibody
# B3: c111D10D6G3 (antibody, human IgG1, V domains shown)
# VH: QVQLQQPGAELVKPGASVKMSCKASGYTFTRHWITWVKQRPGQGLEWIGDIFPGSGSINYNEKFKSEATLTVEKSSSTAYMQLSSLTSEDSAVYYCARGDVDVWGTGTTVTVSS
# VL: DIQMTQSPSSLSASLGERVSLTCRASQEIRGYLSWLQQKPNGTIKRLIYAASTLDSGVPKRFSATRSGSDFSLTISSLESEDFADYYCLQYASYPFTFGSGTKLEIK
# notes: as for B2
# Experiments:
# [1] = molecular target: biotinylated hBLyS-ECD (human) (UniProt Q9Y275); assay: ELISA, coated antibody; biotinylated hBLyS-ECD 0.000006 ng/mL
# [2] = molecular target: biotinylated hBLyS-ECD (human) (UniProt Q9Y275); assay: ELISA, coated antibody; biotinylated hBLyS-ECD 0.00016 ng/mL
# [3] = molecular target: biotinylated hBLyS-ECD (human) (UniProt Q9Y275); assay: ELISA, coated antibody; biotinylated hBLyS-ECD 0.1 ng/mL
# [4] = molecular target: biotinylated hBLyS-ECD (human) (UniProt Q9Y275); assay: ELISA, coated antibody; biotinylated hBLyS-ECD 0.0008 ng/mL
# [5] = molecular target: biotinylated hBLyS-ECD (human) (UniProt Q9Y275); assay: ELISA, coated antibody; biotinylated hBLyS-ECD 0.004 ng/mL
# [6] = molecular target: biotinylated hBLyS-ECD (human) (UniProt Q9Y275); assay: ELISA, coated antibody; biotinylated hBLyS-ECD 0.000032 ng/mL
# [7] = molecular target: biotinylated hBLyS-ECD (human) (UniProt Q9Y275); assay: ELISA, coated antibody; biotinylated hBLyS-ECD 0.02 ng/mL
# [8] = molecular target: biotinylated hBLyS-ECD (human) (UniProt Q9Y275); assay: ELISA, coated antibody; biotinylated hBLyS-ECD 0.5 ng/mL
# [9] = molecular target: T2, human BLyS (full length, arginine 132 mutated to histidine) on CHO-K1 cells (human, UniProt Q9Y275 1-285); assay: flow cytometry (FACS) on CHO-K1 hBLyS cells, Alexa 488 secondary antibody
# T2 construct: also called hBLyS; CHO-K1 hBLyS
# T2 sequence (Q9Y275 other isoform, or with tags, fused parts or gaps limits assumed, change not shown): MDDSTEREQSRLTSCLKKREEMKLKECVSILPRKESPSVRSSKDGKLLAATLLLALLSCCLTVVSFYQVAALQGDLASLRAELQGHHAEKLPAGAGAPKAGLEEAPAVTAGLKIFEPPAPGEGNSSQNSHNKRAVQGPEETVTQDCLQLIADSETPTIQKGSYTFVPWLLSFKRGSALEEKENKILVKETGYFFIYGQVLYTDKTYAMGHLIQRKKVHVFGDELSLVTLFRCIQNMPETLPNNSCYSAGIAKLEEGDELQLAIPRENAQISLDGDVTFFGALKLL
# Description: (§1) The medium was aspirated completely, and the cells were rinsed once with PBS buffer (purchased from Invitrogen) and then treated with cell dispersion solution (TrypLE™ Express Enzyme, purchased from Life technology) and collected. The detailed steps are as follows: the cells were rinsed once with PBS buffer, after counting, the cells were diluted to 2×10⁶ cells/ml with PBS buffer, blocked with 2% (w/w) fetal bovine serum and incubated on ice for 30 minutes. 200 μL of which per well was aliquoted into a 96-well FACS plate and centrifuged at 2000 rpm at 4° C., then each 100 μL of the lead antibodies obtained from Embodiment 1 and 2 were aliquoted into each well and incubated on ice for 1 hour. […] After centrifuged and rinsed 3 times with FACS buffer, cells were suspended with 200 μL of FACS buffer and the results were detected and analyzed by FACS (FACS Calibur, purchased from BD). It was shown in Tables 12-13 that the lead antibody could bind to human BLyS protein on the cell surface and the lead antibody could cross-react with cynomolgus BLyS. The data in the table is MFI, the average fluorescence intensity of the cell population.
# biotinylated hBLyS-ECD [10] = molecular target: T3, biotinylated hBLyS-ECD (human, UniProt Q9Y275 134-285, biotinylated with Biotin-X-X-NHS (molar ratio 7:1), sites not stated); assay: ELISA, biotinylated hBLyS-ECD captured on streptavidin; antibody 0.107 nM
# T3 construct: The hBLyS-ECD of Embodiment 1 after biotinylation (Embodiment 2); also called biotinylated immunogen; BLyS protein; not shown: His tag of the pCPC vector
# Description: (§2) Streptavidin was first diluted to a final concentration of 1.0 μg/mL with PBS, and then 50 μL of diluted streptavidin per well was aliquoted into 96-well ELISA plate, which was subsequently sealed with plastic film and incubated at 4° C. overnight. On the next day the plate was washed four times with the plate washing buffer [PBS buffer containing 0.05% (v/v) Tween20] and added with the blocking solution [PBS buffer containing 0.05% (v/v) Tween20 and 1% (w/w) BSA] and blocked for 2 hours at 37° C. The blocking solution was removed, the biotinylated hBLyS-ECD prepared in Embodiment 2 was diluted with PBS to a final concentration of 50 ng/mL and then aliquoted into the 96-well ELISA plate at 50 μL per well and incubated for 1 hour at 37° C. After rinsing the plate four times with the plate washing buffer [PBS buffer containing 0.05% (v/v) Tween20], 100 μl of the purified lead antibody harvested in Embodiment 1 and 2 was pipetted into each well. After incubation for 1 hour at 37° C., the plate was rinsed four times with the plate washing buffer [PBS buffer containing 0.05% (v/v) Tween20]. HRP-labeled (horseradish peroxidase) secondary antibody (purchased from Sigma) was added in and incubated at 37° C. for 1 hour. The plate was then rinsed four times with the plate washing buffer [PBS buffer containing 0.05% (v/v) Tween20]. 100 μL of TMB substrate was aliquoted into each well and after incubation for 5 minutes at room temperature, 100 μL of stop solution (1.0 N HCl) was aliquoted into each well. A₄₅₀ₙₘ values were read via an ELISA plate reader (SpectraMax M5e purchased from Molecular Devices) and the results were shown in FIGS. 5A-5B and Table 10.
# biotinylated hBLyS-ECD [11] = molecular target: T3, biotinylated hBLyS-ECD; assay: ELISA, biotinylated hBLyS-ECD captured on streptavidin; antibody 66.7 nM
# Description: as §2
# [12] = molecular target: T1, cynomolgus BLyS (full length, arginine …); assay: flow cytometry (FACS) on CHO-K1 cynoBLyS cells, Alexa 488 secondary antibody
# Description: as §1
# biotinylated hBLyS-ECD [13] = molecular target: T3, biotinylated hBLyS-ECD; assay: ELISA, biotinylated hBLyS-ECD captured on streptavidin; antibody 2.67 nM
# Description: as §2
# biotinylated hBLyS-ECD [14] = molecular target: T3, biotinylated hBLyS-ECD; assay: ELISA, biotinylated hBLyS-ECD captured on streptavidin; antibody 0.534 nM
# Description: as §2
# biotinylated hBLyS-ECD [15] = molecular target: T3, biotinylated hBLyS-ECD; assay: ELISA, biotinylated hBLyS-ECD captured on streptavidin; antibody 0.0213 nM
# Description: as §2
# biotinylated hBLyS-ECD [16] = molecular target: T3, biotinylated hBLyS-ECD; assay: ELISA, biotinylated hBLyS-ECD captured on streptavidin; antibody 0.00427 nM
# Description: as §2
# biotinylated hBLyS-ECD [17] = molecular target: T3, biotinylated hBLyS-ECD; assay: ELISA: biotinylated hBLyS-ECD captured on streptavidin, antibody titrated, HRP secondary antibody [label printed at the top of D00004]
# Description: as §2
# biotinylated hBLyS-ECD [18] = molecular target: T3, biotinylated hBLyS-ECD; assay: ELISA, biotinylated hBLyS-ECD captured on streptavidin; antibody 13.3 nM
# Description: as §2
# biotinylated hBLyS-ECD [19] = molecular target: T3, biotinylated hBLyS-ECD; assay: ELISA, biotinylated hBLyS-ECD captured on streptavidin; antibody 0 nM (blank)
# Description: as §2
# biotinylated hBLyS-ECD [20] = molecular target: T3, biotinylated hBLyS-ECD; assay: ELISA: biotinylated hBLyS-ECD captured on streptavidin, antibody titrated, HRP secondary antibody
# biotinylated hBLyS-ECD [21] = molecular target: T3, biotinylated hBLyS-ECD; assay: as above; remark: listed apart in the source
# biotinylated hBLyS-ECD [22] = molecular target: T3, biotinylated hBLyS-ECD; assay: receptor-ligand blocking ELISA: BAFF R coated, biotinylated hBLyS-ECD added with titrated antibody, HRP-avidin; blocked partner: BAFF R
molecule,measurement,setting,value
BLyS antibody (purchased from GSK),OD450 nm,[1],0.08
same,OD450 nm,[2],0.54
same,OD450 nm,[3],3.36
same,OD450 nm,[4],2.01
same,OD450 nm,[5],3.14
same,OD450 nm,[6],0.19
same,OD450 nm,[7],3.24
same,OD450 nm,[8],3.39
B1,EC50 (read off the curve),[9],~0.1 nM
same,OD450 nm,biotinylated hBLyS-ECD [10],0.946
same,OD450 nm,biotinylated hBLyS-ECD [11],2.72
same,EC50 (read off the curve),[12],~0.1 nM
same,OD450 nm,biotinylated hBLyS-ECD [13],2.53
same,OD450 nm,biotinylated hBLyS-ECD [14],2.06
same,OD450 nm,biotinylated hBLyS-ECD [15],0.291
same,OD450 nm,biotinylated hBLyS-ECD [16],0.115
same,EC50 (read off the curve),biotinylated hBLyS-ECD [17],~0.2 nM
same,OD450 nm,biotinylated hBLyS-ECD [18],2.56
same,OD450 nm,biotinylated hBLyS-ECD [19],0.0564
B2,EC50 (read off the curve),biotinylated hBLyS-ECD [20],~0.05 nM
same,EC50 (read off the curve),biotinylated hBLyS-ECD [21],~0.1 nM
same,IC50 (read off the curve),biotinylated hBLyS-ECD [22],~2 nM
B3,EC50 (read off the curve),biotinylated hBLyS-ECD [20],~0.07 nM
same,IC50 (read off the curve),biotinylated hBLyS-ECD [22],~0.08 nM
